Test results from patent US20130251728A1.

Tests used:
[1] = target: mouse GCGR (full-length, on HEK293 reporter cells) (mouse) (UniProt Q61606); test: cell-based or functional assay
[2] = target: rat GCGR (full-length, on transiently transfected HEK293 reporter cells) (rat) (UniProt P30082); test: cell-based or functional assay
Sequence of rat GCGR (full-length, on transiently transfected HEK293 reporter cells) (rat) (P30082 27-485 limits assumed): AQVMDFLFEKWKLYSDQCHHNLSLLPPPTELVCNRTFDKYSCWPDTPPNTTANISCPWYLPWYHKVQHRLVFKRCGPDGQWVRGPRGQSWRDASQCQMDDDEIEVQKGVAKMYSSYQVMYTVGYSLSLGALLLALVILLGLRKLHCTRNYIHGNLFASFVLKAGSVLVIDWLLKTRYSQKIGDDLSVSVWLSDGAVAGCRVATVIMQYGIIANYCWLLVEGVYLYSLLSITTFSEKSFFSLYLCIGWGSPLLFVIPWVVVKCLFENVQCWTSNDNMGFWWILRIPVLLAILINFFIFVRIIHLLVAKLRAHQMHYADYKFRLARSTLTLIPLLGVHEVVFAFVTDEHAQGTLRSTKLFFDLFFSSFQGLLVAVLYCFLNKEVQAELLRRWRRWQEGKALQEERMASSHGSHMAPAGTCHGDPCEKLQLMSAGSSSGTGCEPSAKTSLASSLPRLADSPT

Sequence of mouse GCGR (full-length, on HEK293 reporter cells) (mouse) (Q61606 27-485 limits assumed): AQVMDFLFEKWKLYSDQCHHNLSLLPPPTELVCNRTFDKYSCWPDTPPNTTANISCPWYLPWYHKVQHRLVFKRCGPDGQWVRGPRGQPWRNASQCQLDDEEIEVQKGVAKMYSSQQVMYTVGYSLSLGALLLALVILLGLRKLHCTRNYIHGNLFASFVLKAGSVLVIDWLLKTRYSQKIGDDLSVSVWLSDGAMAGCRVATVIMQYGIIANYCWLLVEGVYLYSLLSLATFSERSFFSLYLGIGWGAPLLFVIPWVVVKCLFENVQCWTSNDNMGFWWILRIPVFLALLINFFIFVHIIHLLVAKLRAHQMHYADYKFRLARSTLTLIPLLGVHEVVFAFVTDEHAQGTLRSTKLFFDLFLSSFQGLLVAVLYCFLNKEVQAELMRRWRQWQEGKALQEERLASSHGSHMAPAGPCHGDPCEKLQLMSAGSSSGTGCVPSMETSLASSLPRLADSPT

- EC50, luciferase activity in HEK293/mGCGR reporter cells [1]: 0.083 nM
- EC50, luciferase activity in HEK293 reporter cells transfected with rat GCGR [2]: 0.252 nM
Substance: glucagon (GCG) (from UniProt P01275 53-81) (ligand)
